Results from patent US20030125257A1 (published 2003).
Square brackets hold non-standard residues; d marks the D form. Ends that are not written are not given here. Sta = CC(C)C[C@H](N)[C@@H](O)CC(=O)O

Biological target: purified full-length human BACE with six C-terminal His residues, expressed in Sf9 insect cells (human, UniProt P56817 46-501)
Assay: radioligand equilibrium binding (Scatchard plot); no inhibitor

Sequence of purified full-length human BACE with six C-terminal His residues, expressed in Sf9 insect cells (P56817 other isoform, or with tags, fused parts or gaps): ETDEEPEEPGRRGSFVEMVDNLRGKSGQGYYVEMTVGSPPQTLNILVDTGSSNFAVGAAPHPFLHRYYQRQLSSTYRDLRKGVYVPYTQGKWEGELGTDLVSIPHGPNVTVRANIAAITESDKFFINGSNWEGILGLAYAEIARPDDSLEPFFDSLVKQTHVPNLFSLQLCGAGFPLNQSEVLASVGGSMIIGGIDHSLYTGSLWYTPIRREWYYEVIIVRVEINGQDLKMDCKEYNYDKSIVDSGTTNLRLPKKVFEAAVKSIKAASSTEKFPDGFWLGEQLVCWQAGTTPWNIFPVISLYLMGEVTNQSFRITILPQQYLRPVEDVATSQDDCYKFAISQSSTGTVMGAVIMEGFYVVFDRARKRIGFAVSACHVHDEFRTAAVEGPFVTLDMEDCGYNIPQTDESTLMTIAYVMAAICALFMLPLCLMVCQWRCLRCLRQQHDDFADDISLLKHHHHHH

For EVN[Sta]VAE[Tyr(3H2)]-NH2 [tritiated Compound A (Glu-Val-Asn-Statine-Val-Ala-Glu-Tyr-NH2, iodine of Tyr(I2) exchanged for 3H)], the Kd was 25 nM.
